{"source": "patent US20250304919A1", "about": "(MASSEY VENTURES, published 2025)", "biological_target": "T1, human fibronectin (human, UniProt P02751 32-2477)", "T1 construct": "also called Fn; analyte", "T1 sequence (P02751 32-2477 limits assumed)": "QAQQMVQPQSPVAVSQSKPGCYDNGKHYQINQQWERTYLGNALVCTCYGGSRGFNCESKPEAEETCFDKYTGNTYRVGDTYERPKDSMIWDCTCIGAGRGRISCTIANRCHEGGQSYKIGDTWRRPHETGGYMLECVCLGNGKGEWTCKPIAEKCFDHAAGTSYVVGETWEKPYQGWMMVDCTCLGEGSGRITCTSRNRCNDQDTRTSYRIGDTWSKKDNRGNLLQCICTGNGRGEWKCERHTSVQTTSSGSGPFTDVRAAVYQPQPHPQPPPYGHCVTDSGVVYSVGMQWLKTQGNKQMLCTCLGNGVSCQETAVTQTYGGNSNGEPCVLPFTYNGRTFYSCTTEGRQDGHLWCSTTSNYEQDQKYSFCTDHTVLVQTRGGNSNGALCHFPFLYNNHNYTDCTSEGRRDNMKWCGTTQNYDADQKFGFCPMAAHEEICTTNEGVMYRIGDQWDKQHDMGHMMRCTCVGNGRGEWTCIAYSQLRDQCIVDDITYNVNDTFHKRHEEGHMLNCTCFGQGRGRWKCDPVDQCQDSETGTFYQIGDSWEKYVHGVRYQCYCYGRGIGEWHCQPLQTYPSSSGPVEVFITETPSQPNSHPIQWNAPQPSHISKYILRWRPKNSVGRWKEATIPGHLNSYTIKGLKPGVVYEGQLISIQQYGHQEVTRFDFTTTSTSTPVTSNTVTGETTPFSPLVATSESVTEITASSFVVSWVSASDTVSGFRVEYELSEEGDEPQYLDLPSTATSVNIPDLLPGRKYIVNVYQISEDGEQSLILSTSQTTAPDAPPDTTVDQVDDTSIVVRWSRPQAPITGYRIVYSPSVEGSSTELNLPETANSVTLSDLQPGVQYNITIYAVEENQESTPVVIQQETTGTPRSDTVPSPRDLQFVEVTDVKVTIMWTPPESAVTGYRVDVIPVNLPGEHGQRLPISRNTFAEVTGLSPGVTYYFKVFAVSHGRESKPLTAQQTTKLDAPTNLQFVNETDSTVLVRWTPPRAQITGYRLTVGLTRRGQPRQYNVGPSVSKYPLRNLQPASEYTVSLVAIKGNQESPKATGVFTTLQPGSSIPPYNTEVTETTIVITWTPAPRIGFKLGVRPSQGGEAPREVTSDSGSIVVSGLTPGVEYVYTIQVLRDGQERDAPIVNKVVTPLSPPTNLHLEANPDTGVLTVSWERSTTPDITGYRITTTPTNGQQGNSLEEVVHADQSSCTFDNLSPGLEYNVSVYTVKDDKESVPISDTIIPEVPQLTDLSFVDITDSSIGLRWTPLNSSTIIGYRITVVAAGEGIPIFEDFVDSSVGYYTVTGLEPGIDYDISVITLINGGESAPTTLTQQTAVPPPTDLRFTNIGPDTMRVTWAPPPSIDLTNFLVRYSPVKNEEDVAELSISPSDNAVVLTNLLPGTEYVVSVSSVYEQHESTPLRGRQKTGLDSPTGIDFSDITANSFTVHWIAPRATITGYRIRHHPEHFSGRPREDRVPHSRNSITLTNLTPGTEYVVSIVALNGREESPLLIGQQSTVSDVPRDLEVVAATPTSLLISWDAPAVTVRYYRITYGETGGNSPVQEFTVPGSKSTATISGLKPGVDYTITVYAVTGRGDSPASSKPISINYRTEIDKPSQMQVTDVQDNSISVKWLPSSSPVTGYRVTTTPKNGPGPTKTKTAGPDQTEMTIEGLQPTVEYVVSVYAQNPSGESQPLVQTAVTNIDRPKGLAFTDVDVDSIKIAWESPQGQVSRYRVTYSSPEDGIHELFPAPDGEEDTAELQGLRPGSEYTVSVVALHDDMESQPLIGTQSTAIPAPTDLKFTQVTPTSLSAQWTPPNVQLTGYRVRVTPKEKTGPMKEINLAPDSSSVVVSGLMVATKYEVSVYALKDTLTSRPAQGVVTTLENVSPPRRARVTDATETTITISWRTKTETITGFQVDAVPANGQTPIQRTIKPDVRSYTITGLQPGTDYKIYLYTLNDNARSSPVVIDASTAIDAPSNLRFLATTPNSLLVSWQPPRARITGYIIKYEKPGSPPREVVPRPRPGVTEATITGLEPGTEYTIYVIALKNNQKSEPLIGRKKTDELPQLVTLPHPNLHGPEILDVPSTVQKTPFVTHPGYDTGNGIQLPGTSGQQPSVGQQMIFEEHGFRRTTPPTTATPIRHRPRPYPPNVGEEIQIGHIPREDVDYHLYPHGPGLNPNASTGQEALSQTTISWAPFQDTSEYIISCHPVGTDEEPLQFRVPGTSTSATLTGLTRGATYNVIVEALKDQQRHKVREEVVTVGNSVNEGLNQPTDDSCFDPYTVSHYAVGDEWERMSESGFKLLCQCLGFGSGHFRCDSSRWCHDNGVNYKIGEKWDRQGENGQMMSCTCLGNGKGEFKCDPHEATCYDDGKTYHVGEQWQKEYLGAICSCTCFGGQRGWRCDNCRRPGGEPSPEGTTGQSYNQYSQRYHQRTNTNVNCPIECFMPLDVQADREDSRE", "assay": "lateral flow dipstick; reference LOD of 6.4 ng/mL is cited from the literature", "data": [{"binder": "BSFnano711G8FnB2 nanorods displaying the FnB-pIII fusion (fibronectin-binding repeats of Streptococcus pyogenes serum opacity factor Sof22 fused to pIII) (other) AAQPAGGHGPIVDIVEDTGTGVEGGAQNGVVSTQENKDPIVDITEDTQPGMSGSNDATVVEEDTTPQRPDVLVGGQSDPIDITEDTQPGMSGSNDATVVEEDTVPKRPDILVGGQSDPIDITEDTQPGMSGSNDATVIEEDTKPKRFFHFDNEAAAPGGAETVESCLAKPHTENSFTNVWKDDKTLDRYANYEGCLWNATGVVVCTGDETQCYGTWVPIGLAIPENEGGGSEGGGSEGGGSEGGGTKPPEYGDRPIPGYTYINPLDGTYPPGTEQNPANPNPSLEESQPLNTFMFQNNRFRNRQGALTVYTGTVTQGTDPVKTYYQYTPVSSKAMYDAYWNGKFRDCAFHSGFNEDPFVCEYQGQSSDLPQPPVNAGGGSGGGSGGGSEGGGSEGGGSEGGGSEGGGSGGGSGSGDFDYEKMANANKGAMTENADENALQSDAKGKLDSVATDYGAAIDGFIGDVSGLANGNGATGDFAGSNSQMAQVGDGDNSPLMNNFRQYLPSLPQSVECRPFVFGAGKPYEFSIDCDKINLFRGVFAFLLYVATFMYVFSTFANILRNKES", "values": [{"measurement": "fold improvement of LOD against FnB nanorods of the phage system (Sattar et al., 2015)", "result": 160, "unit": "fold"}]}]}
